Changes are numbered by the printed parent chain. Entries after “also recorded” stand apart in the source; their conditions may differ. A value given as a limit tells only on which side of the number the result lay.

Data set [1] has as its target T1, Gallus α-N-acetyl-galactosaminidase (Gallus gallus, UniProt Q90744).
T1 construct: mature glycoprotein, about 145 kDa oligomer
T1 sequence (Q90744 1-405 S162A): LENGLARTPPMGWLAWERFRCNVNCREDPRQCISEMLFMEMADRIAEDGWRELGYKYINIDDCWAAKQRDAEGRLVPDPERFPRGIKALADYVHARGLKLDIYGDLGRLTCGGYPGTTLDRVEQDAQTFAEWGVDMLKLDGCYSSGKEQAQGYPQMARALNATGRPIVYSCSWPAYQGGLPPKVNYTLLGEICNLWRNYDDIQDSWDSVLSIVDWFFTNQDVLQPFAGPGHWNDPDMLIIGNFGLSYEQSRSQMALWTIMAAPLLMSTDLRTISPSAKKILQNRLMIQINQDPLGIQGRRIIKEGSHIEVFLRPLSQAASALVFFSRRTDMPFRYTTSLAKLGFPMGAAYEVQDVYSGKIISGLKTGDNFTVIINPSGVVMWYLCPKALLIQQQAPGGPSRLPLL
The data set is described as follows: Affinity ligand chromatography. Format: binding, Gallus domesticus. Particulars: Affi-Gel 10 coupled ligand. The protocol: Synthesis of affinity ligand and resin: .xi.-aminohexanoyl-α-D-galactopyranosYlamine was synthesized by a modification of the method of Harpaz et al. (1974). Purity of the product was determined by thin-layer chromatography and mass spectroscopy. The ligand was coupled to Affi-Gel™ 10 per the manufacturer's directions. Coupling efficiencies of 80%.
Step 5. After dialysis, the pool was applied to a 1.5×20 cm .xi.-aminohexanoyl-α-D-galactopyranosylamine Affi-Gel™ 10 column equilibrated in 50 mM Na acetate+0.1% Triton X-100+0.01% NAN3, pH 5.0. The column was washed with 90 mls of equilibration buffer, and the enzyme was eluted with 50 mM NaH2 PO4 +100 mM methyl-α-D-galactopyranoside+0.1% Triton X-100+0.01% NAN3, pH 7.0. Active fractions were pooled, concentrated, and dialyzed into 50 mM Na acetate+0.1% Triton X-100+0.01% NaN3, pH 5.0.
7. Load the filtrate onto a 2.5×15.0 cm ε-amino-hexanoyl-α-D-galactopyranosylamine Affi-Gel™ 10 column equilibrated with 10 mM NaH2 PO4, pH 5.5 at 4° C. Wash the column with 300 ml of 75 mM NaH2 PO4 pH 5.5. Elute the enzyme from the column with 300 ml (range 50 to 500) of 50 mM NaH2 PO4 +100 mM D-(+)-Galactose, pH 7.0.

In data set [2] the target is T2, Gallus N-acetyl-α-D-galactosaminidase (Gallus gallus, UniProt Q90744).
T2 construct: the cDNA clone corresponds to the region of the mRNA encoding the mature polypeptide for the chicken α-N-acetyl-galactosaminidase; from tissue; host or cells: chicken liver
T2 sequence (Q90744 1-405 S162A): T1 sequence (Q90744 1-405 S162A)
Description: Kinetic parameters (Km, turnover number) of Gallus enzyme. Format: biochemical, Gallus domesticus. The conditions noted are these: Example 1 preparation. As to the method:
Enzymatic activity was quantitated during the purification by measuring production of p-nitrophenol (PNP) from PNP-N-acetyl-α-D-galactosaminide or o-nitrophenol (ONP) from ONP-N-acetyl-α-D-galactosaminide. Enzyme aliquots were incubated in 200 μl of 50 mM Na citrate+1 mg/ml BSA+1.0 mM PNP-N-acetyl-α-D-galactosaminide, pH 3.5, at 37° C. The reactions were quenched with 1.0 ml of 0.25M Na2 CO3 and the OD 405 nm was measured. One unit of activity was defined as 1.0 μmole of substrate hydrolyzed per minute.

The target in data set [3] is T2, Gallus N-acetyl-α-D-galactosaminidase. Description: Substrate specificity (relative activity). Format: biochemical, Gallus domesticus. The conditions noted are these: % of enzyme activity on the corresponding conjugate, 2.5 mM PNP conjugates, pH 3.5.
The subject of data set [4] is human α-N-acetyl-galactosaminidase. The conditions noted are these: human enzyme; Schram et al, 1977; cited from earlier work.
A short description of data set [5]: pH optimum. Format: biochemical. Particulars: for pH optimum: pH 2.0 to 8.0 tested. As to the method: The pH optima was determined by incubating aliquots of the enzyme in 40 mM Na citrate+40 mM NaH2 PO4 +1 mg/ml BSA+2.5 mM PNP-N-acetyl-α-D-galactosamide, pH 2.0 to 8.0. The ionic strength optimum was determined by incubating aliquots of the enzyme in 2.5 mM Na citrate+1 mg/ml BSA+2.5 mM PNP-N-acetyl-α-D-galactoside+0 to 1.0M NaCl, pH 3.5 and 6.0. The Kms for ONP- and PNP-N-acetyl-α-D-galactosaminide were determined by varying the substrate concentration in 50 mM Na citrate+1 mg/ml BSA, pH 3.5. The native molecular weight was determined by applying a concentrated portion of the enzyme to a 1×45 cm Sephacryl S-200 column equilibrated in 25 mM Na citrate+200 mM NaCl, pH 6.0. SDS polyacrylamide electrophoresis (SDS-PAGE) was performed according to the method of Laemmli and the protein bands developed with Coomassie R-250 (Laemmli, 1970). Amino acid composition was determined on a Beckman amino acid analyzer (Moore et al., 1954).

Data set [6] can be described thus: Ionic strength optimum. Format: biochemical.
A short description of data set [7]: pI by chromatofocusing. Particulars: Example 1 preparation. Format: physicochemical.
Data set [8] is described as follows: Storage stability at 4° C. Format: physicochemical.
Data set [9] is described as follows: Aminopeptidase assay with p-nitroaniline (PNA) substrates. Format: biochemical. Particulars: for Aminopeptidase activity: five PNA substrates. The protocol: Aminopeptidase assays were performed by incubating aliquots of enzyme with 2.5 mM of various p-nitroaniline (PNA) substrates in 50 mM Na citrate+50 mM NaH2 PO4 +0.1% Triton X-100, pH 5.0 to 8.0 (Macfarlane et al., 1988). The reactions were incubated at 37° C., quenched with 1.0 ml of 0.25M Na2 CO3, and the OD 405 nm was determined. One unit of aminopeptidase activity was defined as 1.0 μmole of PNA hydrolyzed per minute.

The subject of data set [10] is resorufin-labeled casein. Description: Endoprotease (resorufin-labeled casein) assay. Format: biochemical. Particulars: for endoprotease activity, resorufin-labeled casein assay: sensitivity limit 0.01 trypsin BAEE units. The protocol: (§1) Endoprotease assays were performed by an adaption of the resorufin-labeled casein assay of Twining (Twining, 1984). The limit of sensitivity of this assay was determined using a trypsin standard. Stable, concentrated, detergent-free enzyme was prepared as described herein. Activity against the blood group antigen on erythrocytes was determined by incubating enzyme at 24°-37° C. for 2-8 hours with either erythrocytes equilibrated in 25 mM Na citrate+50 mM NaH2 PO4 +80 mM NaCl, pH 5.6-5.8, or in 2.5-5 mM Na citrate+300 mM glycine, pH 5.4-5.6. The cells were washed with phosphate buffered saline, pH 7.0, then incubated with varying dilutions of polyclonal or monoclonal antibody, as for example anti-A for A erythrocytes. Other antibodies and buffers could be used for other blood groups as is known in the art. Hemagglutination was performed and titer scored by standard methods (Bryant, 1982).

Data set [11] has as its system human A2 erythrocytes. Description: Removal of blood group A epitope from A2 erythrocytes (hemagglutination). Format: cell-based. Particulars: much higher enzyme concentrations are required. The protocol: as §1
The enzyme was also tested on human A2 erythrocytes. Removal of the terminal N-acetyl-α-D-galactosaminyl residue from the blood group A epitope, {galNAc(α1-3) gal(β1-R) {fuc(α1-2)} glueNAc(β1-R)}, was achieved by the enzyme as shown in FIG. 8. […] Incubation at 37° C. was necessary because dilute concentrations of glycosidase were used.

The test system of data set [12] is human A2 erythrocytes. Description: Erythrocyte indices, hemolysis and morphology after enzyme treatment. Format: cell-based.
Data set [13] is described as follows: Selectivity / other glycosidase activities of the enzyme preparation. Format: biochemical.
The conditions of data set [14]: Hata et al., 1992; cited from earlier work.
The mark [15] stands for this setting: preparations isolated by the invention.

As to `NCCCCCC(=O)N[C@H]1O[C@H](CO)[C@H](O)[C@H](O)[C@H]1O` [.xi.-aminohexanoyl-α-D-galactopyranosylamine], the “active site specific affinity ligand (in words)” value in data set [1] is listed as “efficient active site specific affinity ligand”.

Broadly, the Km is the substrate concentration at which the rate is half of its maximum. With `O=[N+]([O-])c1ccc(O[C@H]2O[C@H](CO)[C@H](O)[C@H](O)[C@H]2O)cc1` [PNP-α-D-galactopyranoside], in [2], the “Km (in words)” value was “high Km”. Besides, the “Relative Activity” value in [3] (Table IV, Example 1 preparation) is reported as 12.74%; in data set [3] (Table VI, improved purification (Example 2)), 15.79%. In addition, the Km in data set [4] was 1000 µM.

B1: α-N-acetyl-galactosaminidase: purified exoglycosidase [EC 3.2.1.49] derived from Gallus domesticus (chicken) liver, degrades human blood group A2 epitope (protein, UniProt Q90744 1-405, looked up)
Alpha-N-acetylgalactosaminidas …: T1 sequence (Q90744 1-405 S162A) with A162S
For the molecule B1, in data set [5] (Example 1 preparation), the “pH range of activity (in words)” value is given as “broad pH range” and the pH optimum amounted to 3.7. Further, in data set [5] (Example 2 preparation), the “pH range of activity (in words)” value is listed as “broad pH range” and the pH optimum came to 3.4. Also, in data set [6] (Example 1 preparation, high or low ionic strengths, pH 3.7), the “effect of ionic strength on activity” value is recorded as “not strongly inhibited”. The “effect of ionic strength on activity” value in [6] (Example 2 preparation, high / increasing ionic strength (pH 3.5)) is reported as “unaffected by increasing ionic strength; also recorded: not significantly affected”. Further, the “pI (approximate mean)” value in data set [7] is recorded as roughly 8.15. In addition, in [8] (Example 1 preparation, several months), the “loss of activity on storage” value is on record as “less than 10%”. Besides, the “loss of activity on storage” value in data set [8] (Example 2 preparation, six months) is given as “less than 5%”. Moreover, the “stability (in words)” value in data set [8] (purified enzyme) is “stable at 4 °C”. This molecule showed an Aminopeptidase activity in [9] (Example 1 preparation, below limits of detection) of no more than 0.05 units/mg enzyme. Besides, the Aminopeptidase activity entry in [9] (Example 2 preparation) is recorded as “less than 0.05 units per mg”. Besides, in [9] (setting [15]), the “aminopeptidase activity (in words)” value was “lacked detectable aminopeptidase”. In addition, in data set [10] (Example 1 preparation), the “"trypsin-like activity"” value is reported as “less than 0.78 ng per mg of pure enzyme”; the “proteolytic activity (in words)” value is given as “No proteolytic activity was detected”; the “endoprotease activity, resorufin-labeled casein assay” value is on record as no more than 0.01 BAEE units/mg enzyme. For the same molecule, in data set [10] (Example 2 preparation), the “"trypsin-like activity"” value is reported as “less than 0.78 ng per mg of pure enzyme”; the “proteolytic activity (in words)” value is given as “no measurable protease activity; also recorded: No proteolytic activity was detected”; the “endoprotease activity, resorufin-labeled casein assay” value is “less than 0.01 BAEE units/mg enzyme”. Moreover, the “endoprotease activity (in words)” value in data set [10] (setting [15]) was “lacked detectable aminopeptidase and endoprotease activities”. For the same molecule, in data set [11], the “deantigenation at lower temperatures and shorter incubations” value is listed as “achieved deantigenation”. The “morphology of treated cells” value in [12] was “mixed population of normocytes and spiculated cells”. In addition, in data set [12] (treated human A2 erythrocytes), the “change in erythrocyte mean corpuscular volume” value is listed as “insignificant change”, the “change in mean corpuscular hemoglobin” value is “insignificant change”, the “change in mean corpuscular hemoglobin concentration” value is recorded as “insignificant change” and the visible hemolysis result is given as “little visible hemolysis”. Also, the “selectivity (in words)” value in [13] (for PNP-N-acetyl-α-D-galactosaminide) was “highly selective”. The “other glycosidase activities (in words)” value in data set [13] (preparations of the inventive isolation methods) was “lack other detectable glycosidase activities”. The “degradation of the human blood group A epitope” value in data set [14] is listed as “degrades the human blood group A epitope”.

The record behind these values is US5610063A, “cDNA for α-N-acetyl-galactosaminidase from Gallus domesticus” (Curators of the University of Missouri, priority 1995, dated 1997).
